Measurements taken from patent US20250388676A1.
Numbering of substitutions follows the chain as printed.

How the values were obtained:
[1] = biological target: human HVEM on Jurkat NF-kB reporter cells (human) (UniProt Q92956); test: cell-based or functional assay
[2] = biological target: human LTBR on Jurkat NF-kB reporter cells (human) (UniProt P36941); test: cell-based or functional assay
[3] = biological target: HVEM (analyte in solution) (UniProt Q92956); test: SPR (Biacore), construct captured on CM5 chip via anti-human Fc or Fab, antigen as analyte, 25 C
Sequence of HVEM (analyte in solution) (Q92956 39-202 limits assumed): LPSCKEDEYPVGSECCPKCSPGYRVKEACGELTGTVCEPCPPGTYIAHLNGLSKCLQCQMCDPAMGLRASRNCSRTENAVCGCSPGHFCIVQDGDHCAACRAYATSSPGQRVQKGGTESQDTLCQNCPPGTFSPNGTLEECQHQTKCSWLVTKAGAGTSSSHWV

[4] = biological target: human OX40 on Jurkat NF-kB-Luc2 OX40 reporter cells (human) (UniProt P43489); test: cell-based or functional assay
Sequence of human OX40 on Jurkat NF-kB-Luc2 OX40 reporter cells (human) (P43489 29-277): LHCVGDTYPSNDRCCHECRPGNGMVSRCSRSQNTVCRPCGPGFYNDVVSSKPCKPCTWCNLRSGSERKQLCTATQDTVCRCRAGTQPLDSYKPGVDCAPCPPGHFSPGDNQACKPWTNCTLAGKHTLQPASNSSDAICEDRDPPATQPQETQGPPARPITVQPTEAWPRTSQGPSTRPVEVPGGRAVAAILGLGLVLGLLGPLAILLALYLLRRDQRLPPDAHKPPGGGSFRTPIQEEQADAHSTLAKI

[5] = biological target: OX40 (analyte in solution) (UniProt P43489); test: SPR (Biacore), construct captured on CM5 chip via anti-human Fc or Fab, antigen as analyte, 25 C
Sequence of OX40 (analyte in solution) (P43489 29-214 limits assumed): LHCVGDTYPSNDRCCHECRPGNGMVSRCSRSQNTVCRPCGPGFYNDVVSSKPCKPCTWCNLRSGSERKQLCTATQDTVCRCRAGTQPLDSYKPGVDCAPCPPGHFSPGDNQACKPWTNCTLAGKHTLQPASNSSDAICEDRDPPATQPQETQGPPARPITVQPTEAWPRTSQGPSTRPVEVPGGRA

[6] = biological target: cynomolgus GITR (cynomolgus monkey); test: flow cytometry on NFkB-NlucP/HEK293 cells expressing cyno GITR, detection with anti-human IgG Fc F(ab')2 [panel B]
[7] = biological target: human CD27 on reporter cells (human) (UniProt P26842); test: cell-based or functional assay
Sequence of human CD27 on reporter cells (human) (P26842 20-260): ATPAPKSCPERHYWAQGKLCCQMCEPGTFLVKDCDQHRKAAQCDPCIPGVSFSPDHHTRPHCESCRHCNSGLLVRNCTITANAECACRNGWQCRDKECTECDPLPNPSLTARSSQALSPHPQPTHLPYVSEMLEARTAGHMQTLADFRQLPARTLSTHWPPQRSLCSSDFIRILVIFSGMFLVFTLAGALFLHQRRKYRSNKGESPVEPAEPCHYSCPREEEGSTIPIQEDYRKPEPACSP

[8] = biological target: CD27 (analyte in solution) (UniProt P26842); test: SPR (Biacore), construct captured on CM5 chip via anti-human Fc or Fab, antigen as analyte, 25 C
Sequence of CD27 (analyte in solution) (P26842 20-191 limits assumed): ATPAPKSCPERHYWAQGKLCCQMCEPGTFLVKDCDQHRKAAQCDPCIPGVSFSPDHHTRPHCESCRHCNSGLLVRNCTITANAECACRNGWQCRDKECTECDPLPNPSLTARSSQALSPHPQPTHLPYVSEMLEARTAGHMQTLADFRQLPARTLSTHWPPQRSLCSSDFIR

activated human T cells = test: flow cytometry on activated primary human T cells, detection with anti-human IgG Fc F(ab')2 [panel A]
activated cyno T cells = test: flow cytometry on activated primary cynomolgus T cells, detection with anti-human IgG Fc F(ab')2 [panel B]

Sequence of human HVEM on Jurkat NF-kB reporter cells (human) (Q92956 39-283): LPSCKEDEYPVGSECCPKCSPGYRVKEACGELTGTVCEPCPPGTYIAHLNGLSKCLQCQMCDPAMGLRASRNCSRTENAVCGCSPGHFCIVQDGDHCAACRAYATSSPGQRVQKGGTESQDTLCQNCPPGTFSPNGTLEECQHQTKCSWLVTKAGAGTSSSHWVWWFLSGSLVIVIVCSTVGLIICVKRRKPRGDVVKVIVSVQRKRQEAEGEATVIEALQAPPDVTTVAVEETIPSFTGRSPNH
Sequence of human LTBR on Jurkat NF-kB reporter cells (human) (P36941 31-435): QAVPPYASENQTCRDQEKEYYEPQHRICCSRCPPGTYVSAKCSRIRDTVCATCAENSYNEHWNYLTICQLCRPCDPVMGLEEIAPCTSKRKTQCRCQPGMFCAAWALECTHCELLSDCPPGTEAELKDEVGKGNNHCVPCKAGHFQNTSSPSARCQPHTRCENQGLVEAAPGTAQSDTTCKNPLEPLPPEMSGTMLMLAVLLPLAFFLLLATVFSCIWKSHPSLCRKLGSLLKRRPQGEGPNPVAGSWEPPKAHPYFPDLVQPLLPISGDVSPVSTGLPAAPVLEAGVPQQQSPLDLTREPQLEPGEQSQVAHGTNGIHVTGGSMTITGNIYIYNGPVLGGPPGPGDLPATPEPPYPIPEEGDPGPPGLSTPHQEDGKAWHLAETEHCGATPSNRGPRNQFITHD

B1: LIGHT monospecific (protein, part only; not given: carrier Fab or Fc and linkers, not shown: another chain or arm of the molecule; a dimerising Fc or GST; large carriers; small tags and cut ends)
chain: LIQERRSHEVNPAAHLTGANSSLTGSGGPLLWETQLGLAFLRGLSYHDGALVVTKAGYYYIYSKVQLGGVGCPLGLASTITHGLYKRTPRYPEELELLVSQQSPCGRATSSSRVWWDSSFLGGVVHLEAGEKVVVRVLDERLVRLRDGTRSYFGAFMVGGGGSGGGGSLIQERRSHEVNPAAHLTGANSSLTGSGGPLLWETQLGLAFLRGLSYHDGALVVTKAGYYYIYSKVQLGGVGCPLGLASTITHGLYKRTPRYPEELELLVSQQSPCGRATSSSRVWWDSSFLGGVVHLEAGEKVVVRVLDERLVRLRDGTRSYFGAFMVGGGGSGGGGSLIQERRSHEVNPAAHLTGANSSLTGSGGPLLWETQLGLAFLRGLSYHDGALVVTKAGYYYIYSKVQLGGVGCPLGLASTITHGLYKRTPRYPEELELLVSQQSPCGRATSSSRVWWDSSFLGGVVHLEAGEKVVVRVLDERLVRLRDGTRSYFGAFMV
HVEM reporter EC50 [1]: 0.05 nM | LTBR reporter EC50 [2]: 0.0057 nM | Average binding Relative (RU) [3]: 1.69 RU

B2: OX40L monospecific (protein, part only; not given: carrier Fab or Fc and linkers, not shown: another chain or arm of the molecule; a dimerising Fc or GST; large carriers; small tags and cut ends)
chain: QVSHRYPRIQSIKVQFTEYKKEKGFILTSQKEDEIMKVQDNSVIINCDGFYLISLKGYFSQEVDISLHYQKDEEPLFQLKKVRSVNSLMVASLTYKDKVYLNVTTDNTSLDDFHVNGGELILIHQNPGEFCVLGGGGSGGGGSQVSHRYPRIQSIKVQFTEYKKEKGFILTSQKEDEIMKVQDNSVIINCDGFYLISLKGYFSQEVDISLHYQKDEEPLFQLKKVRSVNSLMVASLTYKDKVYLNVTTDNTSLDDFHVNGGELILIHQNPGEFCVLGGGGSGGGGSQVSHRYPRIQSIKVQFTEYKKEKGFILTSQKEDEIMKVQDNSVIINCDGFYLISLKGYFSQEVDISLHYQKDEEPLFQLKKVRSVNSLMVASLTYKDKVYLNVTTDNTSLDDFHVNGGELILIHQNPGEFCVL
OX40 reporter EC50 [4]: 0.74 nM | Average binding Relative (RU) [5]: 23.7 RU

B3: GITRL/irrelevant control (antibody, part only; not given: irrelevant anti-TNP binding site, not shown: another chain or arm of the molecule; small tags and cut ends)
chain: QLETAKEPCMAKFGPLPSKWQMASSEPPCVNKVSDWKLEILQNGLYLIYGQVAPNANYNDVAPFEVRLYKNKDMIQTLTNKSKIQNVGGTYELHVGDTIDLIFNSEHQVLKNNTYWGIILLANPQFISGGGGSGGGGSQLETAKEPCMAKFGPLPSKWQMASSEPPCVNKVSDWKLEILQNGLYLIYGQVAPNANYNDVAPFEVRLYKNKDMIQTLTNKSKIQNVGGTYELHVGDTIDLIFNSEHQVLKNNTYWGIILLANPQFISGGGGSGGGGSQLETAKEPCMAKFGPLPSKWQMASSEPPCVNKVSDWKLEILQNGLYLIYGQVAPNANYNDVAPFEVRLYKNKDMIQTLTNKSKIQNVGGTYELHVGDTIDLIFNSEHQVLKNNTYWGIILLANPQFIS
EC50 (read off the curve) [6]: 0.02 nM

B4: CD70 monospecific (protein, part only; not given: carrier Fab or Fc and linkers, not shown: another chain or arm of the molecule; a dimerising Fc or GST; large carriers; small tags and cut ends)
chain: GWDVAELQLNHTGPQQDPRLYWQGGPALGRSFLHGPELDKGQLRIHRDGIYMVHIQVTLAICSSTTASRHHPTTLAVGICSPASRSISLLRLSFHQGCTIASQRLTPLARGDTLCTNLTGTLLPSRNTDETFFGVQWVRPGGGGSGGGGSGWDVAELQLNHTGPQQDPRLYWQGGPALGRSFLHGPELDKGQLRIHRDGIYMVHIQVTLAICSSTTASRHHPTTLAVGICSPASRSISLLRLSFHQGCTIASQRLTPLARGDTLCTNLTGTLLPSRNTDETFFGVQWVRPGGGGSGGGGSGWDVAELQLNHTGPQQDPRLYWQGGPALGRSFLHGPELDKGQLRIHRDGIYMVHIQVTLAICSSTTASRHHPTTLAVGICSPASRSISLLRLSFHQGCTIASQRLTPLARGDTLCTNLTGTLLPSRNTDETFFGVQWVRP
CD27 reporter EC50 [7]: 1.9 nM | Average binding Relative (RU) [8]: 32.7 RU

B5: GITRLmut/anti-PD-1 mAb1 (antibody, part only; not given: mutant GITRL, constant regions, linkers, not shown: a dimerising Fc or GST)
heavy, part: QLQLQESGPGLVKPSETLSLTCTVSGGSISTSSYFWGWIRQPPGKGLEWIGSIYRSGSTYYNPSLKSRVTISVDTSKNQFSLKLSSVTAADTAVYYCARGITGDPGDYWGQGTLVTVSS
light, part: EIVLTQSPATLSLSPGERATLSCGASQSVSINFLAWYQQKPGLAPRLLIYEASSRATGIPDRFSGSGSGTDFTLTISRLEPEDFAVYYCQQYGSSPYTFGQGTKLEIK
EC50 (read off the curve) (activated human T cells): 0.4 nM | EC50 (read off the curve) (activated cyno T cells): 0.6 nM

B6: GITRLmut/anti-PD-1 mAb2 (antibody, part only; not given: mutant GITRL, constant regions, linkers, not shown: a dimerising Fc or GST)
heavy, part: B5 heavy, part with T31S
light, part: B5 light, part with S30P, A56H, Q90G
EC50 (read off the curve) (activated human T cells): 0.1 nM | EC50 (read off the curve) (activated cyno T cells): 0.2 nM
